Biological target: Streptococcus pyogenes Cas9 (SpCas9) protein, wild type (Streptococcus pyogenes) (UniProt Q99ZW2)

Substance: M13 phage major coat protein G8P periplasmic domain peptide (M13 G8PPD)
- inhibition of the in vitro DNA cleavage activity of 50 nM SpCas9, peptide added before sgRNA (IC50): 5 µM

From publication PMC7045643, “Allosteric inhibition of CRISPR-Cas9 by bacteriophage-derived peptides” (Genome Biology, 2020)
